biological target: Jak2 (UniProt O60674); assay: phosphorylation enrichment, bacterial display (enrichment ratio); higher = better substrate or ligand; peptides without Tyr show the background
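Further: 11-residue human phosphosite peptides and single-mutation variants displayed on the E. coli surface, counted by deep sequencing, each peptide's frequency after selection divided by its frequency in the unselected input library; frequency after pTyr selection over input frequency; kinase dosed for 20-30% of maximal phosphorylation in three min.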

Sequence of Jak2 (O60674 whole entry, looked up): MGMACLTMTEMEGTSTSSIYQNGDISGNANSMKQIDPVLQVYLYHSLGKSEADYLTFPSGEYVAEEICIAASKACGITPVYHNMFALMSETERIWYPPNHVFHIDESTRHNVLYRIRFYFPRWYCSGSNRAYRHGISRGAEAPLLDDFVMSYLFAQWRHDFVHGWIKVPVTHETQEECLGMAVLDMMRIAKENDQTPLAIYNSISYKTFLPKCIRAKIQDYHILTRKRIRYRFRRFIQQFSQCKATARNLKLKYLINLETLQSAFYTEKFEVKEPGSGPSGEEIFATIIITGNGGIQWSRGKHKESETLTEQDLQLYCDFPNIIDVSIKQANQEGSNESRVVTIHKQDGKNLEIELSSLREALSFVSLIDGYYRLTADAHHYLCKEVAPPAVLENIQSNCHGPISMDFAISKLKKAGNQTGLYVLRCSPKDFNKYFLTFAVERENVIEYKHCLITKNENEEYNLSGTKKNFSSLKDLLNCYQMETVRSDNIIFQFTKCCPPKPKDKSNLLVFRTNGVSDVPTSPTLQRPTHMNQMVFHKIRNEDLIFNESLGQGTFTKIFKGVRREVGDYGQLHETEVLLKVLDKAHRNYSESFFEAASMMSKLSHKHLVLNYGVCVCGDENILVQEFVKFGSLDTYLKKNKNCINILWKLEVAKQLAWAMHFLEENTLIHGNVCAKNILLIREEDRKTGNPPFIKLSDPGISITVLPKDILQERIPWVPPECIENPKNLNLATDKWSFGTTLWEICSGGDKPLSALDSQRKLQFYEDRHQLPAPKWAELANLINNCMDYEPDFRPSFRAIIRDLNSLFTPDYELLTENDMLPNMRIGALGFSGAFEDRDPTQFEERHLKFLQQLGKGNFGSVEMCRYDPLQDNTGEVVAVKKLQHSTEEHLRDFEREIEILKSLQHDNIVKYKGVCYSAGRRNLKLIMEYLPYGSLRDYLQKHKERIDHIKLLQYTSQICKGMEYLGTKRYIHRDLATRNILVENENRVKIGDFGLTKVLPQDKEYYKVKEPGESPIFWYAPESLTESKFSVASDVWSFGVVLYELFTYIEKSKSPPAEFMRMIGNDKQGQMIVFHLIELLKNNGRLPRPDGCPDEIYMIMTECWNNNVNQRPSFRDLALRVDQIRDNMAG

First: SGIYQYIIAKF [FOXL2_Y83]
Second: CSDPSYVKQME [CDC5L_Y464_Y459C]
The phosphorylation enrichment of the first is lower: 0.852 for the first, 1.13 for the second.

Compared with IIGNGYFFHVF [MYBPC3_Y1135_R1138H_YF], MGGSVYFSFPD [HIKESHI_Y55_YF] is higher in phosphorylation enrichment: 1.07 for the first, 1.94 for the second.

Going from NFRRGYHLQVL [CD200R1L_Y138_H135R] to CTTIHHNFMCN [TP53_Y234_Y234H_YF], the phosphorylation enrichment rises from 0.528 to 0.606.

Compared with IFETDYFRKGG [INSR_Y1189_YF], WISNRYPDFSS [PRPH2_Y184_L185P] is lower in phosphorylation enrichment: 0.934 for the first, 0.841 for the second.

Going from GSRGKCSSGFR [ATM_Y332_Y332C] to RVQKRYILDNV [RCN1_Y115_F117L], the phosphorylation enrichment falls from 0.532 to 0.487.

First: SETSRYLSDLF [KCNJ3_Y67]
Second: YPIDHYLGKEM [G6PD_Y202_R198P]
The phosphorylation enrichment of the first is higher: 1.17 for the first, 0.806 for the second.

First: LEQDEYALHSH [HADHB_Y244_R247H]
Second: SSQAHYRLSAF [ADAMTS9_Y100]
The phosphorylation enrichment of the first is higher: 1.2 for the first, 0.482 for the second.

First: QSSALYEDCYL [ASS1_Y83_R86C]
Second: GRPLSYWLTGC [LYZL6_Y140_F139S]
The phosphorylation enrichment of the first is higher: 1.5 for the first, 1.24 for the second.

Compared with INSLKYAYNIS [EIF2B5_Y583], VHNLDYFKMTT [FGFR3_Y647_K650M_YF] is higher in phosphorylation enrichment: 0.569 for the first, 7.7 for the second.

Going from DLDPNYVVSSR [CKM_Y125_L127V] to YTGDIYSNSNL [LZTR1_Y141], the phosphorylation enrichment falls from 0.843 to 0.524.

Compared with DPADRYLIEQC [CDKL5_Y286_T288I], ALTRSYIREKV [CYP2C8_Y243] is lower in phosphorylation enrichment: 1.06 for the first, 0.445 for the second.

Compared with SREDIYKRNIE [PDE4DIP_Y45], AMCVRYDGVEV [ADAMTSL2_Y594] is higher in phosphorylation enrichment: 0.7 for the first, 1 for the second.

First: ARTNEYKIIRT [INA_Y87]
Second: FSLPAFMDRRD [COX4I1_Y38_Y38F]
The phosphorylation enrichment of the first is lower: 0.571 for the first, 0.807 for the second.

Going from FCVDCYKNFVA [FHL1_Y213_YF] to LFSLGYHQSLW [GANAB_Y396_R400L], the phosphorylation enrichment falls from 0.898 to 0.7.

Compared with LYIDSYEKDVA [PGM1_Y521], FTFDPYSEEDP [IL2RB_Y387_YF] is lower in phosphorylation enrichment: 1.24 for the first, 1.17 for the second.

First: SVTCTCSPALN [TP53_Y126_Y126C]
Second: MCDKEYYSVHN [MET_Y1234_Y1230C]
The phosphorylation enrichment of the first is lower: 1.15 for the first, 1.31 for the second.

In the case of SECCKYKTDNP [OSMR_Y689_I691T], the phosphorylation enrichment is reported as 0.725.

biological target: MERTK (UniProt Q12866); assay: as above
Sequence (Q12866 whole entry, looked up): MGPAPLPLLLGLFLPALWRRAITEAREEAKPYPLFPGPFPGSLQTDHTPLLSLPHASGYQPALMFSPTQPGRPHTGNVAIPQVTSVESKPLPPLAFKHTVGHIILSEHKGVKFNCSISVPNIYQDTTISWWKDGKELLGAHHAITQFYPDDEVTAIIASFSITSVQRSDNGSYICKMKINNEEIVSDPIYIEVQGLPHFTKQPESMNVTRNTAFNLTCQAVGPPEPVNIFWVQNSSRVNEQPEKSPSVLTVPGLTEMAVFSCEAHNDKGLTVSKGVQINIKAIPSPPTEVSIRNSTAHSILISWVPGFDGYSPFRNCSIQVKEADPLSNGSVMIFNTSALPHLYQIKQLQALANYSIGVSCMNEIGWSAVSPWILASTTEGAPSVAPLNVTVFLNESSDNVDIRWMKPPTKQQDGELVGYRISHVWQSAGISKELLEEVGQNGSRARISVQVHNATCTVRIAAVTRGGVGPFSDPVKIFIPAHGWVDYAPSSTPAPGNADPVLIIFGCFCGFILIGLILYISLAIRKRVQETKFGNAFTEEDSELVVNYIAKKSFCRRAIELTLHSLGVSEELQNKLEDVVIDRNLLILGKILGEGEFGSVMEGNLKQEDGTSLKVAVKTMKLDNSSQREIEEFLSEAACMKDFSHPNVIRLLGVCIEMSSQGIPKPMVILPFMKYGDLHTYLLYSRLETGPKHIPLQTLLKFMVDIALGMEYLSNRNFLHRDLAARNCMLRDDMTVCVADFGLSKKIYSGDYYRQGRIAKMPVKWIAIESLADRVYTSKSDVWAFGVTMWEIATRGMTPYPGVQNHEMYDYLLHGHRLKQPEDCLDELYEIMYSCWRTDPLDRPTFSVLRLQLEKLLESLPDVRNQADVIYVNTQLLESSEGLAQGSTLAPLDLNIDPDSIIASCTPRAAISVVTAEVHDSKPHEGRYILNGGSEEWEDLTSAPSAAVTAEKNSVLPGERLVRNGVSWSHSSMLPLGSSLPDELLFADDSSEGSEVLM

Going from SGIYQYIIAKF [FOXL2_Y83] to CSDPSYVKQME [CDC5L_Y464_Y459C], the phosphorylation enrichment falls from 8.1 to 0.493.

First: IIGNGYFFHVF [MYBPC3_Y1135_R1138H_YF]
Second: MGGSVYFSFPD [HIKESHI_Y55_YF]
The phosphorylation enrichment of the first is lower: 0.254 for the first, 3.89 for the second.

Going from NFRRGYHLQVL [CD200R1L_Y138_H135R] to CTTIHHNFMCN [TP53_Y234_Y234H_YF], the phosphorylation enrichment falls from 0.394 to 0.377.

First: IFETDYFRKGG [INSR_Y1189_YF]
Second: WISNRYPDFSS [PRPH2_Y184_L185P]
The phosphorylation enrichment of the first is lower: 0.436 for the first, 0.487 for the second.

Compared with GSRGKCSSGFR [ATM_Y332_Y332C], RVQKRYILDNV [RCN1_Y115_F117L] is lower in phosphorylation enrichment: 0.411 for the first, 0.367 for the second.

Going from SETSRYLSDLF [KCNJ3_Y67] to YPIDHYLGKEM [G6PD_Y202_R198P], the phosphorylation enrichment falls from 0.485 to 0.412.

Compared with LEQDEYALHSH [HADHB_Y244_R247H], SSQAHYRLSAF [ADAMTS9_Y100] is lower in phosphorylation enrichment: 0.578 for the first, 0.368 for the second.

Going from QSSALYEDCYL [ASS1_Y83_R86C] to GRPLSYWLTGC [LYZL6_Y140_F139S], the phosphorylation enrichment falls from 3.43 to 0.411.

Going from INSLKYAYNIS [EIF2B5_Y583] to VHNLDYFKMTT [FGFR3_Y647_K650M_YF], the phosphorylation enrichment falls from 0.398 to 0.356.

First: DLDPNYVVSSR [CKM_Y125_L127V]
Second: YTGDIYSNSNL [LZTR1_Y141]
The phosphorylation enrichment of the first is lower: 0.453 for the first, 2.36 for the second.

First: DPADRYLIEQC [CDKL5_Y286_T288I]
Second: ALTRSYIREKV [CYP2C8_Y243]
The phosphorylation enrichment of the first is higher: 0.467 for the first, 0.369 for the second.

Going from SREDIYKRNIE [PDE4DIP_Y45] to AMCVRYDGVEV [ADAMTSL2_Y594], the phosphorylation enrichment rises from 0.366 to 0.49.

Compared with ARTNEYKIIRT [INA_Y87], FSLPAFMDRRD [COX4I1_Y38_Y38F] is lower in phosphorylation enrichment: 0.436 for the first, 0.4 for the second.

Going from FCVDCYKNFVA [FHL1_Y213_YF] to LFSLGYHQSLW [GANAB_Y396_R400L], the phosphorylation enrichment rises from 0.487 to 0.535.

Going from LYIDSYEKDVA [PGM1_Y521] to FTFDPYSEEDP [IL2RB_Y387_YF], the phosphorylation enrichment falls from 0.717 to 0.426.

Compared with SVTCTCSPALN [TP53_Y126_Y126C], MCDKEYYSVHN [MET_Y1234_Y1230C] is higher in phosphorylation enrichment: 0.395 for the first, 0.478 for the second.

SECCKYKTDNP [OSMR_Y689_I691T] gave a phosphorylation enrichment of 0.492.

biological target: Fyn (UniProt P06241); assay: as above
Sequence (P06241 whole entry, looked up): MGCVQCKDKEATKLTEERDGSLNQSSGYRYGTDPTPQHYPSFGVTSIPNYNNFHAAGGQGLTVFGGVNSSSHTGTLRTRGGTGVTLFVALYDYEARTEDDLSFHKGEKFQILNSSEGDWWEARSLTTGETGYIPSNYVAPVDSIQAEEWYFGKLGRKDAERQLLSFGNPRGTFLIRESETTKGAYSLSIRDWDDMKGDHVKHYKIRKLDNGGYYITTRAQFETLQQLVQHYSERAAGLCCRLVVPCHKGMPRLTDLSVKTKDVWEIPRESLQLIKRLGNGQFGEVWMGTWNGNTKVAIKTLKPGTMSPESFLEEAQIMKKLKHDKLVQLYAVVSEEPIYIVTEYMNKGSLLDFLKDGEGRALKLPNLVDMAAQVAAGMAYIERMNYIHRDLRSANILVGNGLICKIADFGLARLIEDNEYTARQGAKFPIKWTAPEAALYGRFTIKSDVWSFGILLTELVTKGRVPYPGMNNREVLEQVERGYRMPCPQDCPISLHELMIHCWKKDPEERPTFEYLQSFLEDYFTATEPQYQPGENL

Going from SGIYQYIIAKF [FOXL2_Y83] to CSDPSYVKQME [CDC5L_Y464_Y459C], the phosphorylation enrichment falls from 4.03 to 0.467.

Going from IIGNGYFFHVF [MYBPC3_Y1135_R1138H_YF] to MGGSVYFSFPD [HIKESHI_Y55_YF], the phosphorylation enrichment rises from 0.313 to 4.01.

Compared with NFRRGYHLQVL [CD200R1L_Y138_H135R], CTTIHHNFMCN [TP53_Y234_Y234H_YF] is higher in phosphorylation enrichment: 0.416 for the first, 0.453 for the second.

Compared with IFETDYFRKGG [INSR_Y1189_YF], WISNRYPDFSS [PRPH2_Y184_L185P] is lower in phosphorylation enrichment: 0.5 for the first, 0.404 for the second.

Compared with GSRGKCSSGFR [ATM_Y332_Y332C], RVQKRYILDNV [RCN1_Y115_F117L] is lower in phosphorylation enrichment: 0.395 for the first, 0.372 for the second.

First: SETSRYLSDLF [KCNJ3_Y67]
Second: YPIDHYLGKEM [G6PD_Y202_R198P]
The phosphorylation enrichment of the first is higher: 0.504 for the first, 0.48 for the second.

Going from LEQDEYALHSH [HADHB_Y244_R247H] to SSQAHYRLSAF [ADAMTS9_Y100], the phosphorylation enrichment falls from 0.887 to 0.449.

First: QSSALYEDCYL [ASS1_Y83_R86C]
Second: GRPLSYWLTGC [LYZL6_Y140_F139S]
The phosphorylation enrichment of the first is higher: 3 for the first, 0.527 for the second.

Compared with INSLKYAYNIS [EIF2B5_Y583], VHNLDYFKMTT [FGFR3_Y647_K650M_YF] is lower in phosphorylation enrichment: 0.414 for the first, 0.33 for the second.

Compared with DLDPNYVVSSR [CKM_Y125_L127V], YTGDIYSNSNL [LZTR1_Y141] is higher in phosphorylation enrichment: 0.45 for the first, 7.46 for the second.

Going from DPADRYLIEQC [CDKL5_Y286_T288I] to ALTRSYIREKV [CYP2C8_Y243], the phosphorylation enrichment falls from 0.51 to 0.422.

First: SREDIYKRNIE [PDE4DIP_Y45]
Second: AMCVRYDGVEV [ADAMTSL2_Y594]
The phosphorylation enrichment of the first is higher: 0.591 for the first, 0.583 for the second.

First: ARTNEYKIIRT [INA_Y87]
Second: FSLPAFMDRRD [COX4I1_Y38_Y38F]
The phosphorylation enrichment of the first is higher: 0.504 for the first, 0.458 for the second.

Going from FCVDCYKNFVA [FHL1_Y213_YF] to LFSLGYHQSLW [GANAB_Y396_R400L], the phosphorylation enrichment falls from 0.562 to 0.475.

Compared with LYIDSYEKDVA [PGM1_Y521], FTFDPYSEEDP [IL2RB_Y387_YF] is higher in phosphorylation enrichment: 0.77 for the first, 0.839 for the second.

Going from SVTCTCSPALN [TP53_Y126_Y126C] to MCDKEYYSVHN [MET_Y1234_Y1230C], the phosphorylation enrichment rises from 0.479 to 0.684.

Work on SECCKYKTDNP [OSMR_Y689_I691T] yielded a phosphorylation enrichment of 0.375.

biological target: EPHB2 (UniProt P29323); assay: as above
Sequence (P29323 whole entry, looked up): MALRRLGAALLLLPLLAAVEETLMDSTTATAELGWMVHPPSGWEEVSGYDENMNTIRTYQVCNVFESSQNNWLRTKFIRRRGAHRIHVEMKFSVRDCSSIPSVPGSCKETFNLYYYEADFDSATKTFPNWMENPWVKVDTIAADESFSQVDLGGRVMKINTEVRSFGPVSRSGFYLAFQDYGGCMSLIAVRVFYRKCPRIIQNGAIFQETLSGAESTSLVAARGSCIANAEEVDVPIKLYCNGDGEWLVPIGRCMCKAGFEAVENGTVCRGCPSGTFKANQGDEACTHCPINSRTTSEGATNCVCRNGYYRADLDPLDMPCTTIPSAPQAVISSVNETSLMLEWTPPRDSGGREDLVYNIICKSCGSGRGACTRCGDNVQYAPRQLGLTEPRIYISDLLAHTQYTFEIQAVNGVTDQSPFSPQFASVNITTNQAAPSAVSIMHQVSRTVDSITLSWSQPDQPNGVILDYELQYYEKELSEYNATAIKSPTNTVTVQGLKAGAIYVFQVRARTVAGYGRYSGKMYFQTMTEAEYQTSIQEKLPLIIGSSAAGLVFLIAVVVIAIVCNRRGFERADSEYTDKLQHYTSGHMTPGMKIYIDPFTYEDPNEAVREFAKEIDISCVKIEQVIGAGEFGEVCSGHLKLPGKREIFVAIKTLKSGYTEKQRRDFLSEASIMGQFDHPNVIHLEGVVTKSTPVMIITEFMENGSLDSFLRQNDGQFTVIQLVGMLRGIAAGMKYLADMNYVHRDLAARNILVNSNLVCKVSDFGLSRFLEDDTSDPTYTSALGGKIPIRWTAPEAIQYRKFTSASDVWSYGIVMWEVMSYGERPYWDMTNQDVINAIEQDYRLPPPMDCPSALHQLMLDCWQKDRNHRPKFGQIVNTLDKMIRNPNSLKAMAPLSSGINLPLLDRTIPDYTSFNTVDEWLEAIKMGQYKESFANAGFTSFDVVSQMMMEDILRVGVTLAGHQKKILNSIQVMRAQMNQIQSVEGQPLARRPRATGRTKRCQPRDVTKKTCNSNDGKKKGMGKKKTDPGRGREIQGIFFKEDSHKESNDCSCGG

First: SGIYQYIIAKF [FOXL2_Y83]
Second: CSDPSYVKQME [CDC5L_Y464_Y459C]
The phosphorylation enrichment of the first is higher: 5.98 for the first, 0.626 for the second.

Going from IIGNGYFFHVF [MYBPC3_Y1135_R1138H_YF] to MGGSVYFSFPD [HIKESHI_Y55_YF], the phosphorylation enrichment rises from 0.547 to 0.991.

Going from NFRRGYHLQVL [CD200R1L_Y138_H135R] to CTTIHHNFMCN [TP53_Y234_Y234H_YF], the phosphorylation enrichment rises from 0.473 to 0.51.

Going from IFETDYFRKGG [INSR_Y1189_YF] to WISNRYPDFSS [PRPH2_Y184_L185P], the phosphorylation enrichment falls from 0.626 to 0.552.

First: GSRGKCSSGFR [ATM_Y332_Y332C]
Second: RVQKRYILDNV [RCN1_Y115_F117L]
The phosphorylation enrichment of the first is higher: 0.379 for the first, 0.234 for the second.

Compared with SETSRYLSDLF [KCNJ3_Y67], YPIDHYLGKEM [G6PD_Y202_R198P] is lower in phosphorylation enrichment: 0.562 for the first, 0.54 for the second.

Compared with LEQDEYALHSH [HADHB_Y244_R247H], SSQAHYRLSAF [ADAMTS9_Y100] is lower in phosphorylation enrichment: 0.669 for the first, 0.426 for the second.

Going from QSSALYEDCYL [ASS1_Y83_R86C] to GRPLSYWLTGC [LYZL6_Y140_F139S], the phosphorylation enrichment falls from 7.55 to 0.664.

First: INSLKYAYNIS [EIF2B5_Y583]
Second: VHNLDYFKMTT [FGFR3_Y647_K650M_YF]
The phosphorylation enrichment of the first is lower: 0.368 for the first, 0.383 for the second.

Going from DLDPNYVVSSR [CKM_Y125_L127V] to YTGDIYSNSNL [LZTR1_Y141], the phosphorylation enrichment rises from 0.546 to 1.53.

First: DPADRYLIEQC [CDKL5_Y286_T288I]
Second: ALTRSYIREKV [CYP2C8_Y243]
The phosphorylation enrichment of the first is higher: 0.682 for the first, 0.316 for the second.

First: SREDIYKRNIE [PDE4DIP_Y45]
Second: AMCVRYDGVEV [ADAMTSL2_Y594]
The phosphorylation enrichment of the first is lower: 0.553 for the first, 0.735 for the second.

First: ARTNEYKIIRT [INA_Y87]
Second: FSLPAFMDRRD [COX4I1_Y38_Y38F]
The phosphorylation enrichment of the first is lower: 0.425 for the first, 0.456 for the second.

First: FCVDCYKNFVA [FHL1_Y213_YF]
Second: LFSLGYHQSLW [GANAB_Y396_R400L]
The phosphorylation enrichment of the first is higher: 0.751 for the first, 0.702 for the second.

First: LYIDSYEKDVA [PGM1_Y521]
Second: FTFDPYSEEDP [IL2RB_Y387_YF]
The phosphorylation enrichment of the first is higher: 1.15 for the first, 0.642 for the second.

Going from SVTCTCSPALN [TP53_Y126_Y126C] to MCDKEYYSVHN [MET_Y1234_Y1230C], the phosphorylation enrichment rises from 0.614 to 0.865.

For SECCKYKTDNP [OSMR_Y689_I691T], the phosphorylation enrichment was 0.413.
